In the DeepSol protein solubility set:

Test: soluble on expression in E. coli; label from the status in PepcDB or PDB records
For “MVITLSRLYVHPVKSMRGLQLSHAQVSRSGLAFDRVFMITEPDGMFITARQYPKMVMFTPALMADGLYLTAPDGESASIRFNDFLANPAPTEVWGNHFTALIAPEAINSWLSGYFQRDVQLRWVGTELTRRVKPLPEVPLSFADGFPYLLINEASFKDLQQRCPASIKLEQFRPNLVITGTTAFAEDCWQVIRIGDITFDLVKPCSRCVLTTVSVERGQKHPAGEPLRTLQTFRTAENGDVDFGQNMVARNSGIIRVGDEVEVLITKPPRPYGAGAVVESLSAPQDQSKTVSIEYNGIRFNGNNQQILLEQLEQQNIRIPYSCRAGICGSCRVTLLTGDVAALKKSAVGNDGTILCCSCIPKGDISLSGK”, the “soluble on expression in E. coli” value was “not soluble”.
With “MVKAVIFTDFDGTVTLEDSNDYLTDTLGFGKEKRLKVFEGVLDDTKSFRQGFMEMLESIHTPFPECIKILEKKIRLDPGFKDTFEWAQENDVPVIVVSSGMKPIIKVLLTRLVGQESIHKIDIVSNEVEIDAHDQWKIIYKDESPFGHDKSRSIDAYKKKFESTLKAGEQRPVYFYCGDGVSDLSAAKECDLLFAKRGKDLVTYCKKQNVPFHEFDTFKDILASMKQVLAGEKTVAELMEN” the “soluble on expression in E. coli” value was “soluble”.
With “MVKEPGGKHVLCVGAAVLDTLFRVADMPKGEGKVLPYEVLQIAEGMASSAAYAVHRMGGRASLWGAVGDDETGTRILRDLSESGIDTSGMTVAPGARSALSTIIIDNRGERLIVPFYDHRLHEKKRACTPEDIALFDAVLVDVRWPELALDVLTVARALGKPAILDGDVAPVETLEGLAPAATHIVFSEPAATRLTGLETVKDMLPVLHARYPQTFIAVTAGPAGCWWTEADDPTVHFQTTMQVEAVDTLAAGDIFHGTFALAMAEGMQSRAAVRLSSVAAALKCTVFGGRIGAPTREETEEAMRQWLERESEPALRAS” the “soluble on expression in E. coli” value was “soluble”.
In the case of “MVKIGVCGPVGSGKTALIEALTRHMSKDYDMAVITNDIYTKEDAEFMCKNSVMPRERIIGVETGGCPHTAIREDASMNLEAVEEMHGRFPNLELLLIESGGDNLSATFNPELADFTIFVIDVAEGDKIPRKGGPGITRSDLLVINKIDLAPYVGADLKVMERDSKKMRGEKPFIFTNIRAKEGLDDVIAWIKRNALLEDLEHHHHHH”, the “soluble on expression in E. coli” value is reported as “soluble”.
For “MVKQRSELLFLYDVQWANPNGDPVDGNKPRIDEETGKNIVTDVRLKRTIRDYLYEYRHQEIFVREIAQDDDYIQDAKARAEDFLVKDGEKLDKSKLTLSEMKKIINDEVLRQCIDVRLFGVTLPIEKSSKEKSSITHTGPVQFKMGQSLHRVKLEYIKGTGAFASGGQMTQKTFREEYVLPYSLIAFYGVINETAARFTRLTEEDVELLVDAMWEGTKNLISRSKVGHVPRLLLRVVYQEPHFHIGELDKYISLHTEKAEEEIRDAQDYVLDVSRLIEVLAREKEKIANIELRQDERLVCNENLVDRLRQEGIVVDIR”, the “soluble on expression in E. coli” value was “not soluble”.
With “MVKVGIIGGSGLEDPNILLDPVTVAVDTPYGKPSDDVVEGTINGVECVLLARHGRKHDIMPGNVNFRANLWALYSRGVDVIIASTACGSLQENVEPGHLLFPDSVFDRTTGRQSTFFDGSYDQAPGVCHIQAHPTYNEKLRQVLISTAERCQLVHHRTGFGVCIEGPRFSTKAESMVFKSWGASLVNMTMMPECILAKELGIPYATTALVTDYDCWKEEDHVTASSVMKVFAANVEKAKTLFVEAVGEIGKIDWSAEILKLKTEARESVMISPDVVIPFLTTDNQKKF” the “soluble on expression in E. coli” value was “not soluble”.
For “MVKVIFFDLDDTLVDTSKLAEIARKNAIENMIRHGLPVDFETAYSELIELIKEYGSNFPYHFDYLLRRLDLPYNPKWISAGVIAYHNTKFAYLREVPGARKVLIRLKELGYELGIITDGNPVKQWEKILRLELDDFFEHVIISDFEGVKKPHPKIFKKALKAFNVKPEEALMVGDRLYSDIYGAKRVGMKTVWFRYGKHSERELEYRKYADYEIDNLESLLEVLARESSSNKKVHPPRQQI”, the “soluble on expression in E. coli” value was “soluble”.
With “MVLAGGVGKRLLPLTRERPKPYLPLAGKPLYMYAVEQVAMVRSLLDRAVMVTPPGHPTPPGSLPSWLDTVEQQGEGVEAGLATALKRLGGGEEVVVSFVGYLARPNTLVRHVLDFYSVTRYKLVLALAPVTRGSESFGFVDADPSTGRVLGFSGSREEWMAGRGRVFAGVLAGDPEALEVLAGEGFVEGINTLARRGLVGSVVWPGEWLEVGYPCDLLEAPRLVVEAWAAVISAKARVARSSVIQGGVVIEEDAEVGEGAVVEGPAYLGRGAVVGRNSVVGPGVVLEEGAVVGDLVSIERSVMLERAEASGPSRLEGVVIGDGAYIAPLAAATNREGCTVVAPKTRLGPRATLEPGKTYTLEHHHHHH” the “soluble on expression in E. coli” value was “not soluble”.
For “MVLDQGDVISRINEGAISSSLEDLAKETGKEVRFVTIHRLDYGETPESFAQALFEKWFPSKEAQANQILLVLDTVTNGTAIITGDEVKPLLTDTIANSVAEETLAAPLRDGNKYNQAFLDASDRLVAVLSGQPDPGPPQIVDKLEHHHHHH”, the “soluble on expression in E. coli” value was “soluble”.
In the case of “MVLRAKLLSWQEGVGSKTFEFDVDVEPRSYVISKVSQLSPIIASEDLTVCEGEVAVVGTRVIEIPENTVVRPVAAISHANGFVADVIECGAPGMVEDEKCINHAVFIPTRSGDVKEGDLLGMLRINFVRTGLLSRVILEHHHHHH”, the “soluble on expression in E. coli” value is reported as “not soluble”.
For “MVLRTGRLSDFQRDMMNDHWAKFGLDYQKSPFDFVEIFGNANPVVLEIGFGMGRSLVEMAAQNPDRNYIGIEVHTPGVGACIAYAVEKQVDNLRVICHDATEILRDAVADGSLAGLQLYFPDPWQKSKHHKRRIVQTEFVMRLLTKLTAGGFIHFATDWQNYAEHMLAVLRQFSPALVNTSPTGDFIDRPAFRPLTKFEARGQRLGHAVWDLYFVKKLEHHHHHH”, the “soluble on expression in E. coli” value was “not soluble”.
With “MVLSQKLHEAFKGTVERITGPRTISAFKEKGVLSVSEFVLAGDNLVSKCPTWSWESGDASKRKPYLPSDKQFLITRNVPCLRRAASVAEDYEAAGGEVLVDDEDNDGWLATHGKPKGKEEDNLPSMDALDINEKNTIQSIPTYFGGEEDDDIPDMEEFDEADNVVENDPATLQSTYLVAHEPDDDNILRTRTYDLSITYDKYYQTPRVWLTGYDESRMLLQPELVMEDVSQDHARKTVTIEDHPHLPGKHASVHPCRHGAVMKKIIDVLMSRGVEPEVDKYLFLFLKFMASVIPTIEYDYTMDFDLGSSST” the “soluble on expression in E. coli” value was “not soluble”.
With “MVNIDKIIGINNLPLANGLGEYAKRMEAVLGKNILSLVMDKRYKDMDYAGRKIYGYYPPITNGYLLNVYLSRSILKKYYKGKFPHLLSPFFYLGSEYESKSIITIHDTYYKWEKNKMQRLSKKIVRKYRSFKNIISISEQTKNDLIADGYDADNISVIYNYIDPIFRKLESINKDEKTVLTVGDGIHKNNILVNKIVNGRYYHIHIGKEVRADENYSGISTEELVKLYNRASVLIRLSDYEGFGYPPLEALFCGTPAVVSDIAVFRELLGDSAVYVKKDEVSILDGIEYAIQNRKEMLNRFESKIKSRYTKERFISNMIKYYKDL” the “soluble on expression in E. coli” value was “soluble”.
With “MVNLQEYQSKKLMSDNGVKVQRFFVADTANEALEAAKRLNAKEIVLKAQILAGGRGKGVFSSGLKGGVHLTKDPEVVGQLAKQMIGYNLATKQTPKEGVKVNKVMVAEALDISRETYLAILMDRSCNGPVLVGSPQGGVDIEEVAASNPELIFKEQIDIIEGIKDSQAQRMAENLGFLGPLQNQAADQIKKLYNLFLKIDATQVEVNPFGETPEGQVVCFDAKINFDDNAEFRQKDIFAMDDKSENEPIENEAAKYDLKYIGLDGNIACFVNGAGLAMATCDIIFLNGGKPANFLDLGGGVKESQVYQAFKLLTADPKVEAILVNIFGGIVNCAIIANGITKACRELELKVPLVVRLEGTNVHEAQNILTNSGLPITSAVDLEDAAKKAVASVTKK” the “soluble on expression in E. coli” value was “soluble”.
With “MVPQTGRAARATRESGRQTRDALFTAATELFLEHGEGVPITQICAAAGAHPNQVTYYYGSKERLFVEVACAAVLRAGKRAEDDAATAETVGDYTEKLVGSLLGPGAPSVELFTSAMLMTGRRSELRDLITDTLRTLHSSGEVALIRTLMRTGWQLRAGIDVESKAFWSAIFGLVIQKTATGESFGYSLEEAVAVIFANLQIPETVRNTSID” the “soluble on expression in E. coli” value was “soluble”.
